Results from IntAct's records for PubMed 21804599.

B1: "Na(+)/H(+) exchange regulatory cofactor NHE-RF1" (Homo sapiens), O14745 (parent)
chain: MSADAAAGAPLPRLCCLEKGPNGYGFHLHGEKGKLGQYIRLVEPGSPAEKAGLLAGDRLVEVNGENVEKETHQQVVSRIRAALNAVRLLVVDPETDEQLQKLGVQVREELLRAQEAPGQAEPPAAAEVQGAGNENEPREADKSHPEQRELRPRLCTMKKGPSGYGFNLHSDKSKPGQFIRSVDPDSPAEASGLRAQDRIVEVNGVCMEGKQHGDVVSAIRAGGDETKLLVVDRETDEFFKKCRVIPSQEHLNGPLPVPFTNGEIQKENSREALAEAALESPRPALVRSASSDTSEELNSQDSPPKQDSTAPSSTSSSDPILDFNISLAMAKERAHQKRSSKRAPQMDWSKKNELFSNL
partner: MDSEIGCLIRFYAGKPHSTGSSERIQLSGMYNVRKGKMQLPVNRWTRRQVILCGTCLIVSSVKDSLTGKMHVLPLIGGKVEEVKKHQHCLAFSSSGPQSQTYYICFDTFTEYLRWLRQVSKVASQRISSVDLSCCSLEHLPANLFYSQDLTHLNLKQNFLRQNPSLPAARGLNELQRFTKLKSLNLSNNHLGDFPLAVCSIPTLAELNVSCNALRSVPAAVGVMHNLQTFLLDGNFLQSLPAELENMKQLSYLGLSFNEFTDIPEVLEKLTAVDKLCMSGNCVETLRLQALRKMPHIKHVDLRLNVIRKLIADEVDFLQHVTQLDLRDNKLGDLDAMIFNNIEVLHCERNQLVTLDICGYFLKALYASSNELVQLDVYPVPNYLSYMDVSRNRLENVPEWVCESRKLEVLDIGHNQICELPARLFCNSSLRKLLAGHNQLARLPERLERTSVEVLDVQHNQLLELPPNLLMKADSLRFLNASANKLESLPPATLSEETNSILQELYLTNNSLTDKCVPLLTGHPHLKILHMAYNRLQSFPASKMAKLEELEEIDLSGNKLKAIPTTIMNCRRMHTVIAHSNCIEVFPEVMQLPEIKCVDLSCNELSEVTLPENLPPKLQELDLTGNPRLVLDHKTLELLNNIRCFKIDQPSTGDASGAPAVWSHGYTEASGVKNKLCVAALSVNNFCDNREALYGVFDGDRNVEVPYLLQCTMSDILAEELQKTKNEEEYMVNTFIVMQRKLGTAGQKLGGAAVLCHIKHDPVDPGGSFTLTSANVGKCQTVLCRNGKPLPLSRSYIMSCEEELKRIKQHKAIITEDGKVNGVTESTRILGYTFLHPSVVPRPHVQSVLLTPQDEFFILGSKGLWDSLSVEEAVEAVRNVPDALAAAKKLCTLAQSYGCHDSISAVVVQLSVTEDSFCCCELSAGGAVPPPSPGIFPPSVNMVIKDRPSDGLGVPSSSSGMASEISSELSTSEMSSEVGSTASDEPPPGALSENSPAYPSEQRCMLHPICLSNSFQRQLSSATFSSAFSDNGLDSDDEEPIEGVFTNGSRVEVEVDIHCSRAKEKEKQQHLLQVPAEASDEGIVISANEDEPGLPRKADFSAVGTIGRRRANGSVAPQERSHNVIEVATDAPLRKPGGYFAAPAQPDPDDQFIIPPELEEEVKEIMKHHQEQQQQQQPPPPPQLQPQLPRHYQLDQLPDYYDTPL
B2: "Na(+)/H(+) exchange regulatory cofactor NHE-RF1" (Homo sapiens), O14745 (parent)
chain: B1 chain
partner: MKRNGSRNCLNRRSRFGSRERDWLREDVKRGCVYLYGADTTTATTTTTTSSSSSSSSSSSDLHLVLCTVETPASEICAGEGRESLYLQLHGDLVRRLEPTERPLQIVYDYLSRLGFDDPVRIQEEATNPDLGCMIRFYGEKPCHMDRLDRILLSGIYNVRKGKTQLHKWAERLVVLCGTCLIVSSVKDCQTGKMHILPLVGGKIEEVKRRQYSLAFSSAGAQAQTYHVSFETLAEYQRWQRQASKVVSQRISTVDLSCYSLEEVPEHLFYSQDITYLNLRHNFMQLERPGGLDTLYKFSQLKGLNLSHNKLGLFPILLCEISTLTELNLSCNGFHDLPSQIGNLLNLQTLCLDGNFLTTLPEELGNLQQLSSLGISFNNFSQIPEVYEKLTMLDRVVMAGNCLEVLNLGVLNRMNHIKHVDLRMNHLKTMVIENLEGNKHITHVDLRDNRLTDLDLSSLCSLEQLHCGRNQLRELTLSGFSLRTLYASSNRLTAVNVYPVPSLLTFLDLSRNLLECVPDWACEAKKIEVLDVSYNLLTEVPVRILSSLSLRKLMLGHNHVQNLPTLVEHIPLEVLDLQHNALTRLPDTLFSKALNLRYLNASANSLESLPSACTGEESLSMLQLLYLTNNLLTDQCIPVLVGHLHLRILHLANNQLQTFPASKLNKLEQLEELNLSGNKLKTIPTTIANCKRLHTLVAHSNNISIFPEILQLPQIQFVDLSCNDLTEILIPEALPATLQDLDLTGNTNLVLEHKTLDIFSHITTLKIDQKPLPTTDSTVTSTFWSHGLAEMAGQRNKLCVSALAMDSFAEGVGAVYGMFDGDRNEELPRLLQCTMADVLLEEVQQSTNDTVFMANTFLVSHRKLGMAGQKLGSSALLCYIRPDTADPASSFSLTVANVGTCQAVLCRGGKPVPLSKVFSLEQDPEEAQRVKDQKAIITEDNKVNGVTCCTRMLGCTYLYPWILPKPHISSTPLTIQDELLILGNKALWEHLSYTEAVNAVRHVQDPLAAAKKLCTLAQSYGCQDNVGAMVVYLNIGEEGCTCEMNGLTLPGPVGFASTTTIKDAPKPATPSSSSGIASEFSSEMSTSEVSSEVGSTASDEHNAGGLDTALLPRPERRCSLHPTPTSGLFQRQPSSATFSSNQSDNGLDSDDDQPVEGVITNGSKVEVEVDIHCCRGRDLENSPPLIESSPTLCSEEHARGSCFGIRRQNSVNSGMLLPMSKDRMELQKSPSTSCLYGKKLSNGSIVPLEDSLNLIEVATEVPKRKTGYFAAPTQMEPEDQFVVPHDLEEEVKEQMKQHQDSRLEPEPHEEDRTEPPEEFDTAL

Variants of: B1
Conditions: with PHLPP1, O60346-2

| effect of a mutation on the interaction | Variant |
| --- | --- |
| disrupting interaction | MSADAAAGAPLPRLCCLEKGPNGYGFHLHGEKGKLGRYIRLVEPGSPAEKAGLLAGDRLVEVNGENVEKETHQQVVSRIRAALNAVRLLVVDPETDEQLQKLGVQVREELLRAQEAPGQAEPPAAAEVQGAGNENEPREADKSHPEQRELRPRLCTMKKGPSGYGFNLHSDKSKPGQFIRSVDPDSPAEASGLRAQDRIVEVNGVCMEGKQHGDVVSAIRAGGDETKLLVVDRETDEFFKKCRVIPSQEHLNGPLPVPFTNGEIQKENSREALAEAALESPRPALVRSASSDTSEELNSQDSPPKQDSTAPSSTSSSDPILDFNISLAMAKERAHQKRSSKRAPQMDWSKKNELFSNL [Q37R] |

Variants of: B2
Conditions: with phlp2_human PHLPP2, Q6ZVD8

| effect of a mutation on the interaction | Variant |
| --- | --- |
| disrupting interaction | MSADAAAGAPLPRLCCLEKGPNGYGFHLHGEKGKLGRYIRLVEPGSPAEKAGLLAGDRLVEVNGENVEKETHQQVVSRIRAALNAVRLLVVDPETDEQLQKLGVQVREELLRAQEAPGQAEPPAAAEVQGAGNENEPREADKSHPEQRELRPRLCTMKKGPSGYGFNLHSDKSKPGQFIRSVDPDSPAEASGLRAQDRIVEVNGVCMEGKQHGDVVSAIRAGGDETKLLVVDRETDEFFKKCRVIPSQEHLNGPLPVPFTNGEIQKENSREALAEAALESPRPALVRSASSDTSEELNSQDSPPKQDSTAPSSTSSSDPILDFNISLAMAKERAHQKRSSKRAPQMDWSKKNELFSNL [Q37R] |
